Test results taken from patent US7179650 (University of Texas, dated 2007).

Legend:
[1] = biological target: T1, Full-length human Ubc9 in pGAD424 (GAL4 activation domain fusion) (human, UniProt P04386 768-881; P63279 1-158); assay: yeast two-hybrid
T1 construct: also called human ubiquitin conjugating enzyme

[2] = biological target: T2, Gal-4-sentrin-1 (pGBT9-sentrin-1, full-length sentrin-1 fused to the GAL4 DNA-binding domain) (human, UniProt P04386 1-147 (Saccharomyces cerevisiae entry)); assay: yeast two-hybrid
T2 construct: also called wild type sentrin-1; sentrin-1 bait

Binder | binding result [1] | binding result [2]
MSDQEAKPSTEDLGDKKQGEYIK (Range worked out from the words: the N-terminal 23 amino acids; also called sentrin-1 (1-23); not shown: GAL4 fusion domain of the two-hybrid vector) [The N-terminal 23 amino acids of sentrin-1 (yeast two-hybrid)] | no binding | 
sentrin-1 (1-70) (yeast two-hybrid) (other, also called deletion of the C-terminal 31 amino acids; not shown: GAL4 fusion domain of the two-hybrid vector) MSDQEAKPSTEDLGDKKQGEYIKLKVIGQDSSEIHFKVKMTTHLKKLKESYCQRQGVPMNSLRFLFEGQR | no binding | 
Sentrin-1 with substitution of Ala-Ala for Gly-Gly (yeast two-hybrid) (other, not shown: GAL4 fusion domain of the two-hybrid vector) MSDQEAKPSTEDLGDKKQGEYIKLKVIGQDSSEIHFKVKMTTHLKKLKESYCQRQGVPMNSLRFLFEGQRIADNHTPKELGMEEEDVIEVYQEQTAAHSTV | no binding | 
sentrin-1 (24-101) (yeast two-hybrid) (other, also called deletion of the N terminal 23 amino acids; not shown: GAL4 fusion domain of the two-hybrid vector) LKVIGQDSSEIHFKVKMTTHLKKLKESYCQRQGVPMNSLRFLFEGQRIADNHTPKELGMEEEDVIEVYQEQTGGHSTV | binds | 
UbCH6 (yeast two-hybrid) (enzyme, human, UniProt P51965 1-193, looked up, not shown: GAL4 fusion domain of the two-hybrid vector) MSDDDSRASTSSSSSSSSNQQTEKETNTPKKKESKVSMSKNSKLLSTSAKRIQKELADITLDPPPNCSAGPKGDNIYEWRSTILGPPGSVYEGGVFFLDITFTPEYPFKPPKVTFRTRIYHCNINSQGVICLDILKDNWSPALTISKVLLSICSLLTDCNPADPLVGSIATQYMTNRAEHDRMARQWTKRYAT |  | no binding
E2-EPF (yeast two-hybrid) (enzyme, human, UniProt Q16763 1-222, looked up, not shown: GAL4 fusion domain of the two-hybrid vector) MNSNVENLPPHIIRLVYKEVTTLTADPPDGIKVFPNEEDLTDLQVTIEGPEGTPYAGGLFRMKLLLGKDFPASPPKGYFLTKIFHPNVGANGEICVNVLKRDWTAELGIRHVLLTIKCLLIHPNPESALNEEAGRLLLENYEEYAARARLLTEIHGGAGGPSGRAEAGRALASGTEASSTDPGAPGGPGGAEGPMAKKHAGERDKKLAAKKKTDKKRALRRL |  | no binding
